Columns and labels:
[1] = biological target: T1, Tgo-H4 (RT-H4) DNA polymerase V93Q;I114T;D141A;E143A;S383K;E429G;F445L;A485L;F493V;Y496H;Y497M;Y499F;A500E;K501N;I521L;E664K;K726R;N735K (UniProt P56689); assay: fluorescence polarization; conditions: template fully HNA (1,5-anhydrohexitol nucleic acid); primer DNA; FP: 1x ThermoPol (20 mM Tris-HCl, 10 mM (NH4)2SO4, 10 mM KCl, 2 mM MgSO4, 0.1% Triton X-100, pH 8.8), 25 C, 20 min, 5 nM labeled primer
T1 sequence: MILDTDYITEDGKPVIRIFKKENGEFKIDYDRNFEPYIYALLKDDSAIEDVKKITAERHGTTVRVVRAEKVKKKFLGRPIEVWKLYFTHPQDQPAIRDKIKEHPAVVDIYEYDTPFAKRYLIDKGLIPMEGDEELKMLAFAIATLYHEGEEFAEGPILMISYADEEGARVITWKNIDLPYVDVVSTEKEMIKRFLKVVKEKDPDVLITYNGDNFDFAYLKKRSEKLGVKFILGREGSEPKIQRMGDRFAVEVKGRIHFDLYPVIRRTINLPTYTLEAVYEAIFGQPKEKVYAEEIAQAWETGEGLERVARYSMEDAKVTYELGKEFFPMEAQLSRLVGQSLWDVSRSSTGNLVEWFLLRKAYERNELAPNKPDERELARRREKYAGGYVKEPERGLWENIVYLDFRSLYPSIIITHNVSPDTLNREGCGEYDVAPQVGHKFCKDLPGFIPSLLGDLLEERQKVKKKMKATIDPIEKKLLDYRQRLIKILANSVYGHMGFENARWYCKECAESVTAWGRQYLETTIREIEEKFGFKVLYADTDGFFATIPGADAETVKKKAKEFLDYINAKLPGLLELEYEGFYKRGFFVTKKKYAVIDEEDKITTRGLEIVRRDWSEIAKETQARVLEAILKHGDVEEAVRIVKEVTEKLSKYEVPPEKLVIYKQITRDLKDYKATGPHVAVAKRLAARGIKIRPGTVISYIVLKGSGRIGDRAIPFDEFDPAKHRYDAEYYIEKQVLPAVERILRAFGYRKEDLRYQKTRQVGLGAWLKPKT

[2] = biological target: T2, KOD-H4 DNA polymerase V93Q;I114T;D141A;E143A;S383K;K429G;F445L;A485L;Y493V;Y496H;Y497M;Y499F;A500E;R501N;I521L;E664K;K726R;N735K (Thermococcus kodakarensis KOD?) (UniProt D0VWU9); assay: fluorescence polarization; conditions: template fully HNA (1,5-anhydrohexitol nucleic acid); primer DNA; FP: 1x ThermoPol (20 mM Tris-HCl, 10 mM (NH4)2SO4, 10 mM KCl, 2 mM MgSO4, 0.1% Triton X-100, pH 8.8), 25 C, 20 min, 5 nM labeled primer
T2 sequence: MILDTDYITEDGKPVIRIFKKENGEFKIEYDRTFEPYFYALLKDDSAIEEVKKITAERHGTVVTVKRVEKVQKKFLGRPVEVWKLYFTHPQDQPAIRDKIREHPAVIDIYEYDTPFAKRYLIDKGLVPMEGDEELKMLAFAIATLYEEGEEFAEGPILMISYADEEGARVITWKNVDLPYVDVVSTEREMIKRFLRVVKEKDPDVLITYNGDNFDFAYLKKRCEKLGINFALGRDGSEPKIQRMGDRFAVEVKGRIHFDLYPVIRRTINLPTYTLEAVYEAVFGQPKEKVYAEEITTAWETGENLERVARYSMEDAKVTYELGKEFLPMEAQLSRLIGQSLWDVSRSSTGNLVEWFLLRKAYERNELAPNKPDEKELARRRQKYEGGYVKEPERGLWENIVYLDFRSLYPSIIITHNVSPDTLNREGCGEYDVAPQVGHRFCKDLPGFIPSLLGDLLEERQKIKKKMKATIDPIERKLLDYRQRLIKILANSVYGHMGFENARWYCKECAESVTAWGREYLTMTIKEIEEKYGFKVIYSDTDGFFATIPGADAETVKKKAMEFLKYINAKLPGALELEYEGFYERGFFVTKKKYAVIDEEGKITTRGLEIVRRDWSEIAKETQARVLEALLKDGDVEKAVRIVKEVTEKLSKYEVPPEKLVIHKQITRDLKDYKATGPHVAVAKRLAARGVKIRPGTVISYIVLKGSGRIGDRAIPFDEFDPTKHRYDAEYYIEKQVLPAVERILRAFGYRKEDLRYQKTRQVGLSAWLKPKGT

[3] = biological target: T3, Tgo-H4 (RT-H4) DNA polymerase (UniProt P56689 1-773, V93Q;I114T;D141A;E143A;S383K;E429G;F445L;A485L;F493V;Y496H;Y497M;Y499F;A500E;K50 …); assay: fluorescence polarization; 2 mM MgSO4; apparent KD, Hill slope 1.66; FP: 1x ThermoPol (20 mM Tris-HCl, 10 mM (NH4)2SO4, 10 mM KCl, 2 mM MgSO4, 0.1% Triton X-100, pH 8.8), 25 C, 20 min, 5 nM labeled primer; conditions: protein: recombinant; label: 5'-6-FAM on primer; 5' overhang 6 nt on template; 10-nt duplex
T3 sequence: T1 sequence

KOD-H4 DNA polymerase [4] = biological target: T4, KOD-H4 DNA polymerase (UniProt D0VWU9 1-774, V93Q;I114T;D141A;E143A;S383K;K429G;F445L;A485L;Y493V;Y496H;Y497M;Y499F;A500E;R50 …); assay: fluorescence polarization; 2 mM MgSO4; apparent KD, Hill slope 1.67; FP: 1x ThermoPol (20 mM Tris-HCl, 10 mM (NH4)2SO4, 10 mM KCl, 2 mM MgSO4, 0.1% Triton X-100, pH 8.8), 25 C, 20 min, 5 nM labeled primer; conditions: protein: recombinant; label: 5'-6-FAM on primer; 5' overhang 6 nt on template; 10-nt duplex
T4 sequence: T2 sequence

KOD-H4 DNA polymerase [5] = biological target: T4, KOD-H4 DNA polymerase; assay: X-ray crystallography; dGTP analogue dGMPNPP-type (alpha,beta-imido, NHdGTP); Mg2+ or Mg2+/Mn2+; FP: 1x ThermoPol (20 mM Tris-HCl, 10 mM (NH4)2SO4, 10 mM KCl, 2 mM MgSO4, 0.1% Triton X-100, pH 8.8), 25 C, 20 min, 5 nM labeled primer; conditions: protein: recombinant; 5' overhang 3 nt on template; 13-nt duplex

“GACCACGGCC / AACTGTGGCCGTGGTC [DNA primer/HNA template (FP)]” gave a Kd [1] of 61.5 nM and a Kd [2] of 80.2 nM.

B1: DNA primer/DNA template (FP) (dsDNA)
DNA 1: GACCACGGCC
DNA 2: AACTGTGGCCGTGGTC
With B1 the Kd [3] was 10 nM and the Kd (KOD-H4 DNA polymerase [4]) was 12.5 nM.

B2: 13mer DNA primer/DNA template (crystal) (dsDNA)
DNA 1: GACCACGGCCACA
DNA 2: AACTGTGGCCGTGGTC
B2: binds (KOD-H4 DNA polymerase [5]).

Source: publication PMC11724289, “Structural insights into a DNA polymerase reading the xeno nucleic acid HNA”
